Values of other authors as cited in PMC4847942.
Where two headings read alike, the source gives them in different places.

Key:
Bcl-XL (Homo sapiens) [1] = target: Bcl-XL (Homo sapiens) (UniProt Q07817)
Bcl-XL (Homo sapiens) [2] = target: Bcl-XL (Homo sapiens) (UniProt Q07817); remark: listed apart in the source

Sequence of UniProt Q07817 (Q07817 whole entry): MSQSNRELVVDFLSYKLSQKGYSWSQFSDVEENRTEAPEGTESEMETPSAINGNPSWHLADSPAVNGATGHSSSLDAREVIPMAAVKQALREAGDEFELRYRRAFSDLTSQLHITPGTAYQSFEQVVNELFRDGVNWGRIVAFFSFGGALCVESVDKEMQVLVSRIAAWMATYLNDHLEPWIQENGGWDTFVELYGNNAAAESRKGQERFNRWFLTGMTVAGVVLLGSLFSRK

Substance | Kd (Bcl-XL (Homo sapiens) [1]) [nM] | Kd (Bcl-XL (Homo sapiens) [2]) [nM]
Bid BH3 helix BH3 (from UniProt P55957) | 269 | 
stapled Bid BH3 helix BH3 (from UniProt P55957) |  | 39
